From patent publication US20180202002

Target: T1, N-terminal tagged Cyclin D1 (FLAG-HA-Cyclin D1, tag at the N-terminus), P25322
T1 chain: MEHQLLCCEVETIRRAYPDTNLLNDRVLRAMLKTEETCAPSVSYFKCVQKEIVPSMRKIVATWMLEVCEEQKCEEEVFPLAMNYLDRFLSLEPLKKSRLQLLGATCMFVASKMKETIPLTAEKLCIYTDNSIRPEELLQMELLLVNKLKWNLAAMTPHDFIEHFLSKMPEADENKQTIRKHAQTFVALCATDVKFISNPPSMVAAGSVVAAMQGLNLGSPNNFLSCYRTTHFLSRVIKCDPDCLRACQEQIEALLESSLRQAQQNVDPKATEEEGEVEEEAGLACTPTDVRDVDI

B1: caspase 3 (protein)
chain: MENNKTSVDSKSINNFEVKTIHGSKSVDSGIYLDSSYKMDYPEMGICIIINNKNFHKSTGMSSRSGTDVDAANLRETFMGLKYQVRNKNDLTREDILELMDSVSKEDHSKRSSFVCVILSHGDEGVIYGTNGPVELKKLTSFFRGDYCRSLTGKPKLFIIQACRGTELDCGIETDSGTDEEMACQKIPVEADFLYAYSTAPGYYSWRNSKDGSWFIQSLCSMLKLYAHKLEFMHILTRVNRKVATEFESFSLDSTFHAKKQIPCIVSMLTKELYFYH
levels of cleaved PARP (Western blot) after treatment with 5-FU: The levels of cleaved PARP increase in RAS or ErbB2 cancer cells after treatment with 5-FU, although limited by the Cyclin D1
